Assay: yeast display, Sf9 membrane polyspecificity reagent, FACS + sequencing; frameworks hold sequencing errors
Summary of the method: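 Sorting gates, low and high (top ~1%), were placed on anti-HA fluorescence to track expression and on streptavidin fluorescence to track reagent binding. A clone's polyreactivity label is taken from the gate it came out of. The reagent was 10% biotinylated, detergent-solubilized Sf9 membrane, applied for 1 hour at 4 °C to galactose-induced yeast display cells.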

Question: With “QVQLVESGGGLVQAGGSLRLSCAASGSTFYDYAMGWYRQAPGKERELVAAINWSSDTTYYADSVKGRFTISRDNAKNTVYLQMNSLKPEDTAVYYCATDSAYRGYDYWGQGTQVTVSS” as the sequence, how does the “polyreactivity (PSR sort gate)” value read?
Answer: low polyreactivity

Question: With “QVQLVESGGGLVQAGGSLRLSCAASGSTFYDYAMGWYRQAPGKERELVASISISGGSTYADSVKRRFTISRDNAKNTVYLQMNSLKPEDTAVYYCNAKNYSWDDYDWVPDYEYWGQGTQVTVSS” as the sequence, how does the “polyreactivity (PSR sort gate)” value read?
Answer: low polyreactivity

Question: Which “polyreactivity (PSR sort gate)” value does the source give for “QVQLVESGGGLVQAGGSLRLSCAASGSTFYDYAMGWYRQAPGKERELVASISSGGGTYYADSVKGRFTISRDNAKNTVYLQMNSLKPEDTAVYYCADDDYSSYVYGTFDRYDYWGQGTQVTLSS” here?
Answer: low polyreactivity

Question: Which “polyreactivity (PSR sort gate)” value does the source give for “QVQLVESGGGLVQAGGSLRLSCAASGSTFYDYVMGWYRKAPGKERELVAAITGDGTTDYADSVKGRFTISRDNAKNTVYLQMNSLKPEDTAVYYCNADISLDYDYWGQGTQVTVSS” here?
Answer: low polyreactivity

Question: With “QVQLVESGGGLVQAGGSLRLSCAASGSTFYDYVMGWYRQAPGKERELVAAISRTGASTYYADSVKGRFTISRDNAKNTVYLQMNSLKPEDTAVYYCAADSDTVRYYYWGQGTQVTVSS” as the sequence, how does the “polyreactivity (PSR sort gate)” value read?
Answer: high polyreactivity

Question: Which “polyreactivity (PSR sort gate)” value does the source give for “QVQLVESGGGLVQAGGSLRLSCAASGSTFYEKAMGWYRQAPGKEREFVAAITQSGGSTYYADSVKGRFTISRDNAKNTVYLQMNSLKPEDTAVYYCAKVWPKHYRSLGYGYWGQGTQVTVSS” here?
Answer: low polyreactivity

Question: For “QVQLVESGGGLVQAGGSLRLSCAASGSTFYEYAMGWYRPAPGKERELVAAISSGGSTYYADSVKGRFTISRDNAKNTVYLQMNSLKPEDTAVYYCNSDCQTYGGEYDYWGQGTQVTVSS”, which “polyreactivity (PSR sort gate)” value is on record?
Answer: low polyreactivity

Question: With “QVQLVESGGGLVQAGGSLRLSCAASGSTFYEYAMGWYRQAPGKERELVAAIDERGGNTYYADSVKGRFTISRDNAKNTVYLQMNSLKPEVTAVYYCAADAYPFYQSYYPFEYWGQGTQVTVSS” as the sequence, how does the “polyreactivity (PSR sort gate)” value read?
Answer: low polyreactivity

Question: For “QVQLVESGGGLVQAGGSLRLSCAASGSTFYFYAKGWYRQAPGRELEWVAAISYSGGSTYYADSVKGRFTISRDNAKNTVYLQMNSLTPEDTAVYSCAADAAFYYDADDEYDYWGQGTQVTVSS”, which “polyreactivity (PSR sort gate)” value is on record?
Answer: low polyreactivity

Question: With “QVQLVESGGGLVQAGGSLRLSCAASGSTFYFYDMGWYRQAPGKERELVATIDDGGGSTYYADSVKGRFTISRDNAKNTVYLQMNSLKPEDTAVYYCAADYFVYPDDWYDYWGQGTQVTVSS” as the sequence, how does the “polyreactivity (PSR sort gate)” value read?
Answer: low polyreactivity

Question: With “QVQLVESGGGLVQAGGSLRLSCAASGSTFYGNAMGWSRQAPGKERELVAAIRWRGGRTYYADSVKGRFTISRDNAKNTVYLQMNSLKPEDTAVYYCNALPGVSHTQYDRVGYWGQGTQVTVSS” as the sequence, how does the “polyreactivity (PSR sort gate)” value read?
Answer: high polyreactivity

Question: For “QVQLVESGGGLVQAGGSLRLSCAASGSTFYGNPLGWYRKAPGKERELVAAIRRSGGRTYYADSVKGRFTISRDNAKNTVYLQMNSLKPEDTAVYYCAAAKYSGAYRSTMNYWGQGTQVTVSS”, which “polyreactivity (PSR sort gate)” value is on record?
Answer: high polyreactivity

Question: With “QVQLVESGGGLVQAGGSLRLSCAASGSTFYGYALGWYRQAPGKERELVAGITSAGSTYYADSVKGRFTISRDNAKNTVYLQMNSLKPEDTAVYYCAAVYRRWIWRERYYYCGQGTQVTVSS” as the sequence, how does the “polyreactivity (PSR sort gate)” value read?
Answer: high polyreactivity

Question: With “QVQLVESGGGLVQAGGSLRLSCAASGSTFYGYAMGWYRPAPGKERELVAAITRSGGSTYYADSVKGRFTISRDNAKNTVYLQMNSLKPEDTEVYYCNKYGYKGGVGYDYWGQGTQVTVSS” as the sequence, how does the “polyreactivity (PSR sort gate)” value read?
Answer: high polyreactivity

Question: Which “polyreactivity (PSR sort gate)” value does the source give for “QVQLVESGGGLVQAGGSLRLSCAASGSTFYGYAMGWYRQAPGKERELVAAISSSGTRTYYADSVKGRFTISRDNAKNTVYLQMNSLKPEDTAVYYCATDVRVGHIRDYDYWGQGTQVTVSS” here?
Answer: high polyreactivity

Question: For “QVQLVESGGGLVQAGGSLRLSCAASGSTFYGYAMGWYRQAPGKERELVASITTRGGRTNYADSVKGRFTISRDNAKNTVYLQMNSLKPEDTAVYYCATYSYVTRYARWGEYDYWGQGTQVTVSS”, which “polyreactivity (PSR sort gate)” value is on record?
Answer: high polyreactivity

Question: Which “polyreactivity (PSR sort gate)” value does the source give for “QVQLVESGGGLVQAGGSLRLSCAASGSTFYGYAMGWYRQPPGKERELVAAITIGGRTYYADSVKGRFTISRDNAKNTVYLQMNSLKPEDTAVYYCAAAILRTVPELGSRRTYYYWGQGTQVTVSS” here?
Answer: high polyreactivity

Question: Which “polyreactivity (PSR sort gate)” value does the source give for “QVQLVESGGGLVQAGGSLRLSCAASGSTFYHNAMGWYRQAPGKERELVAAITSGTSTYYADSVKGRFTISRDNAKNTVYLQMNSLKPEDTAVYDCAADSPWGGGYFVLYNYWGQGTQVTVSS” here?
Answer: low polyreactivity

Question: Which “polyreactivity (PSR sort gate)” value does the source give for “QVQLVESGGGLVQAGGSLRLSCAASGSTFYHNVMGWYRQAPGKERELVASIDTGDSTNYADSVKGRFTISRDNAKKTVYLQMNSLKPEDTAVYYCNAVWNTFISGRSYDYWGQGTQVTVSS” here?
Answer: low polyreactivity

Question: With “QVQLVESGGGLVQAGGSLRLSCAASGSTFYHYAMGWYRQAPGKERELVASISHSGGRTFYADSVKGRFTISRDNAKNTVYLQMNSLKPEDTAVYYCAADWRTLTEYGYKGYYWGLGTQVTVSS” as the sequence, how does the “polyreactivity (PSR sort gate)” value read?
Answer: low polyreactivity

Question: For “QVQLVESGGGLVQAGGSLRLSCAASGSTFYINAMGWSRQAPGKEREFVAAIDWGGGTTYYADSVKGRFTISRDNAMNTVYLQMNRLKPEDTAVYYCAAERNYWSTQYYYWGQGTQVTVSS”, which “polyreactivity (PSR sort gate)” value is on record?
Answer: high polyreactivity

Question: With “QVQLVESGGGLVQAGGSLRLSCAASGSTFYINAMRWYRPAPGKERELVAAISWSGGSTYYADSVKGRFTISRDNAKNTVYLQMNSLKPEDTAVYYCAADWYLGWSLDYDYWGQGTQVTVSS” as the sequence, how does the “polyreactivity (PSR sort gate)” value read?
Answer: low polyreactivity

Question: For “QVQLVESGGGLVQAGGSLRLSCAASGSTFYIYAMGWYIQAPGKERELVAAISTTDGTTYYADSVKGRFTISRDNAKNTVYLQMNSLKPEDTAVYYCAAEWFGSVQPAYDYWGQGTQVTVSS”, which “polyreactivity (PSR sort gate)” value is on record?
Answer: high polyreactivity

Question: Which “polyreactivity (PSR sort gate)” value does the source give for “QVQLVESGGGLVQAGGSLRLSCAASGSTFYIYAMGWYRPAPGKERELVARISGSGGSTYYADSVKGRFTISRDNAKNTVYLQMNSLKPEDTAVYYCAADDIYKYYQYYAFPYYRYDYWGQGTQVTVSS” here?
Answer: low polyreactivity

Question: With “QVQLVESGGGLVQAGGSLRLSCAASGSTFYIYAMGWYRQAPGKDRELVAAISGRGGSTYYADSVKGRFTISRDNAKNTVYLQMNSLKPEDTAVYYCATYSRQDHKYDYWGQGTQVTVSS” as the sequence, how does the “polyreactivity (PSR sort gate)” value read?
Answer: high polyreactivity

Question: Which “polyreactivity (PSR sort gate)” value does the source give for “QVQLVESGGGLVQAGGSLRLSCAASGSTFYIYAMGWYRQAPGKERELVAAINSGGGTNYADSVKGRFTISRDNAKNTVYLQMNSLKPEDTAVYYCAKTFYSLYWGQGTQVTVSS” here?
Answer: low polyreactivity

Question: Which “polyreactivity (PSR sort gate)” value does the source give for “QVQLVESGGGLVQAGGSLRLSCAASGSTFYIYAMGWYRQAPGKERELVAAISWRGGRTYYADSVKGRFTISRDNAKNTVYLQMNSLKPEDTAVYYCAAAYLRWSGTYYYVDGYDYWGQGTQVTVSS” here?
Answer: high polyreactivity

Question: With “QVQLVESGGGLVQAGGSLRLSCAASGSTFYIYAMGWYRQAPGKERELVAAITWSGGSTYYADSVKGRFTISRDNAKNTVYLQMNSQKPEDTAVYYCATKRARYSYDYWGQGTQVTVSS” as the sequence, how does the “polyreactivity (PSR sort gate)” value read?
Answer: high polyreactivity

Question: Which “polyreactivity (PSR sort gate)” value does the source give for “QVQLVESGGGLVQAGGSLRLSCAASGSTFYIYAMGWYRQAPGKEREMVARISGSGGSTYYADSVKGRFTISRDNAKNTVYLQMNSLKPEDTAVYYCAADDIYKYYQYYAVPYYRYDYWGQGTQVTVSS” here?
Answer: low polyreactivity

Question: Which “polyreactivity (PSR sort gate)” value does the source give for “QVQLVESGGGLVQAGGSLRLSCAASGSTFYIYGMGWYRQAPGKERELVARISSGGSTYADSVKGRFTISRDNAKNTVYLQMNSLKPEDTAVYYCAAAAARTYRRYRYEGYYYWGQGTQVTVSS” here?
Answer: high polyreactivity

Question: For “QVQLVESGGGLVQAGGSLRLSCAASGSTFYKYAMGWYRQAAGKERELVASISRSGGSTSYADSVKGRFTISRDNAKNTVYLQMNCLKPEDTAVYYCAATWRQHPGSMGYWGQGTQVTVSS”, which “polyreactivity (PSR sort gate)” value is on record?
Answer: high polyreactivity

Question: With “QVQLVESGGGLVQAGGSLRLSCAASGSTFYKYAMGWYRQAPGKERELVAAISRGGSTYYADSVKGRFTISRDNAKNTVYLQMNSLKPEDTAVYYCAAETVSYYSKYDYWGQGTQVTVSS” as the sequence, how does the “polyreactivity (PSR sort gate)” value read?
Answer: low polyreactivity

Question: Which “polyreactivity (PSR sort gate)” value does the source give for “QVQLVESGGGLVQAGGSLRLSCAASGSTFYKYAMGWYRQAPGKERELVASISRRAGSTYYADSVKGRFTISRDNAKNTVYLQMNSLKPEDTAVYYCAAVGRYDRVFDYDYWGQGTQVTVSS” here?
Answer: high polyreactivity

Question: Which “polyreactivity (PSR sort gate)” value does the source give for “QVQLVESGGGLVQAGGSLRLSCAASGSTFYKYAMGWYRQAPGKERELVASISRSGGSTSYADSVKGRFTISRDNAKNTVYLQMNSLKPEDTAVYYCAADRYSSPYYSSPNEYDYWGQGTQVTVSS” here?
Answer: high polyreactivity

Question: For “QVQLVESGGGLVQAGGSLRLSCAASGSTFYKYAMGWYRQAPGKERELVASISRSGGSTSYADSVKGRFTITRDNAKNTVYLQMNSLKPEDTAVYYCAATWRQHPGSMGYWGQGTQVTVSS”, which “polyreactivity (PSR sort gate)” value is on record?
Answer: high polyreactivity

Question: With “QVQLVESGGGLVQAGGSLRLSCAASGSTFYLNAMGWYRPAPGKERELVAAISSGGRTYYADSVKGRFTISRDNAKNTVYLQMISLKPEDTGVYYCNAVRYLRGAYNYWGQGTQVTVSS” as the sequence, how does the “polyreactivity (PSR sort gate)” value read?
Answer: high polyreactivity

Question: Which “polyreactivity (PSR sort gate)” value does the source give for “QVQLVESGGGLVQAGGSLRLSCAASGSTFYLYAMGLYRQAPGKERELVAAISSGGRTNYADSVKGRFTISRDNAKNTVYLQMNSLKPEDTAVYYCAARIQWPTWSLYYYWGQGTQVTVSS” here?
Answer: high polyreactivity

Question: Which “polyreactivity (PSR sort gate)” value does the source give for “QVQLVESGGGLVQAGGSLRLSCAASGSTFYLYAMGWYRQAPGKEREFVAAISWSGGRTYYAHSVKGRFTISRDYAKNTVYLQMNSLKPEDTAVYYCAARRRYTWQYTSYDMGYWGQGTQVTVSS” here?
Answer: low polyreactivity

Question: With “QVQLVESGGGLVQAGGSLRLSCAASGSTFYLYTMGWYRQAPGKERELVAASSINGGITYYADSVKGRFTISRDNAKNTVYFQMYSLKPEDTAVYYCAKSSGQTDVGSFYYRLDYWGQGTQVTVSS” as the sequence, how does the “polyreactivity (PSR sort gate)” value read?
Answer: low polyreactivity

Question: For “QVQLVESGGGLVQAGGSLRLSCAASGSTFYNNAMGWYRQAPGKERELVAAISSGGGTYYADSVKGRFTISRDNAKNTVYLQMNSLKPEDTAVYYCAADFANTTHWGRIKRYDYWGQGTQVTVSS”, which “polyreactivity (PSR sort gate)” value is on record?
Answer: low polyreactivity

From the nanobody polyreactivity screen of Harvey et al. (2022)
